From patent US20220204602A1

Columns and labels:
[1] = target: human FcRn (human) (UniProt P55899); assay: SPR (Biacore); pH 6.0
[2] = target: Cynomolgus C5 (Cynomolgus); assay: BLI (Gator); pH 5.8
[3] = target: Cynomolgus C5 (Cynomolgus); assay: BLI (Gator); pH 7.4

Chain of human FcRn (human) (P55899 24-297, chain 1 of 2): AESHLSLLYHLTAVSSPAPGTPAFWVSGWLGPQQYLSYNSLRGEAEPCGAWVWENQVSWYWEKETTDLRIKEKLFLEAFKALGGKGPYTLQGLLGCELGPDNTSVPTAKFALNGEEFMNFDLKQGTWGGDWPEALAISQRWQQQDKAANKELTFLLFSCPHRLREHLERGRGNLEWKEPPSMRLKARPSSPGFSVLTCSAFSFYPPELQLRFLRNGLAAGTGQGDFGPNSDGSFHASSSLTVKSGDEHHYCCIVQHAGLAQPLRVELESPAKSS
Chain of human FcRn (human) (main, as listed by the source, chain 2 of 2): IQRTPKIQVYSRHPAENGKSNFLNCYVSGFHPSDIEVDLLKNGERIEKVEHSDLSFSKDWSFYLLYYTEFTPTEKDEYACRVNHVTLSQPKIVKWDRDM

Q: What does the source list for “anti-C5 mAb/FH SCR1-5 fusion protein FMEH-IgG4PLA-FH1-5 (from UniProt P08603 19-322)”?
A: Ka [1]: 1.13e+08 M⁻¹; Kd [2]: 41.1 nM; Kd [3]: 6.04 nM
